Measurements taken from paper doi:10.1101/2024.12.09.627393.

Columns and labels:
H4Tetra^ac nucleosome = H4Tetra^ac nucleosome (UniProt P68431); assay: AlphaScreen or HTRF; dCypher: GST-CECR2-BRD titrated against PTM-defined nucleosomes (10 nM); glutathione Acceptor and streptavidin Donor beads; 20 mM Tris pH 7.5, 250 mM NaCl, 0.01% NP-40, 0.01% BSA, 1 mM DTT; room temperature; relative EC50 (EC50^rel)
H3Tetra^ac nucleosome = H3Tetra^ac nucleosome (UniProt P68431); assay: as above

Sequence of GST-CECR2-BRD (GST tag retained, for dCypher assays) (Q9BXF3 424-538): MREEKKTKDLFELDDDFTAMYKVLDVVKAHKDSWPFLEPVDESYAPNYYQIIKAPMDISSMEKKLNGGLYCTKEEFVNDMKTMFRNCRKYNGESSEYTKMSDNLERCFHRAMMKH

Substance: GST-CECR2-BRD (GST tag retained, for dCypher assays) (from UniProt Q9BXF3-1 424-538) (domain or fragment)
- EC50 (H4Tetra^ac nucleosome): 9.2 nM
- EC50 (H3Tetra^ac nucleosome): 6 nM
